# From the domain aggregation screens of Martell et al. (2025)
# Test: soluble fraction after stress (log2 fold change); higher = more stays soluble; pooled small domains, quantitative proteomics
# Conditions: stress: 75 degC
# 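Note: 20 min heating vs room temperature control held 20 min.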
row,Sequence,soluble fraction (log2)
1,HMKIVFGHVKWFDIDKGFGFLVLEDEGGDVLLHANVLKNFGRTSVSEDTKIEFEFLETDKGRQVSTIYNIL,-3.28
2,HMKIVQDIAFSDFLNEVEKDNVLDVNIKGDLINGNLADGRKFKTYTPYDPNLIEKLSNKNVTINVEPYN,0.512
3,HMKKAENEKLNIPYDVTEFLASSIKDDIRMMEGAMVKLLALSSLTKQDITQSLAKRVIQDVLGSSA,-0.209
4,HMKKAMIISTKRGTPAAELDKIIREFEAKGLSVTMIRGTDYNVFGLVGDTTVIDEKQVRANPYVENVQRV,-0.157
5,HMKKATYDVMVREALVSFKKKGATLQSIKKKIKADYAIEANATAVKSAIQKGMEAGSIRKSYDLYFFMD,-2.8
6,HMKKDDLKQINGIGTTIEKKLNEIDIYNFYQISNLSKEDIETISEKIKTFPGKIERDNWVGQAQELL,0.0235
7,HMKKIFIDAPLDTMITIPKDTTHHLLTVFRHKMEKPVLVGGSDGRTGVYQIQDVVDGEASAKLVGDIQ,0.738
8,HMKKISAKQQQILDYISSYSLEHGYPPSVREIGAEMGLRSPSTVHAHLKKLQEAGYLEPNEHKSRALTP,-0.146
9,HMKKITTANPLDINRATLAQLDTLPGIGPVTAERIIAYRSKVGRINSLDELKKISGLGGMKFEEIKPLLRV,0.0978
10,HMKKKLPRYLQEQKYGNGMVFYRYNPTARYIDEGIVTRTNLGSDLSIAKKKANEFNKLIDAFLQQQSE,-1.16
11,HMKKMSFKEAFLKYVEIKDNPYNMESVKMLVSLQPLIVKAYSILGVDKVRRLNYVKTKIQDAIINGD,-2.7
12,HMKKNLELGLLPHEVKSILGEPDFIDTITDIDGIRYDMWSYTKLNVTKRLYFEDLFLVRMEE,-3.31
13,HMKKNNTTPIPKTLNYVNIKGLSNEAVERLNKHKPSTLGQASRLEGITPAATSLISIAIKKNQLLEKAES,0.0664
14,HMKKPAERRKELVDAAAHLFAEKGYENTSVRDILDAVGGAPGMFYYYFKSKQDIYVAVMEDF,-3.71
15,HMKKPANLISEDRMVEVLYDVIIINTAKGVNKQLLQNNINNPLNYIYRSHGIDSLQFAESNAYYTS,-0.563
16,HMKKSGFFSAGDRIQLTDNKGRQYSFNITEGKEFHTHQGFIKHDDLIGMPEGSVVSINSTTGVVQKFMAF,0.32
17,HMKKSIRIFELMKAKVAAEIFDQMILEGKIEDVFDIIVRLKDSNVSNIMKTMSVENSSRLVQKLERYNKD,-3.12
18,HMKKVRIPDDPEEAYRKALKTAMNIVGYKDNTEFTLREKLSERGYSGETVDAVAEFMKSKGYV,-0.0562
19,HMKKVTMQDIANILNISRVTVWKVLNNQPGVSKQLRDQILLTAKETGYLKPGQEAEAYLEENNIYFEG,-0.272
20,HMKKYDIKEAQEIAEINRIPGLVTTSHGRRVYFDPKIMQYVSEEQIVKKYGQKTVKMLDQWYVSNILNK,-0.21
21,HMKKYLIIDAANEKIIFKIIDNNKTYTNDYENSRKNFDRFAVLLFNFLNKNMISFDTIDKAL,-0.118
22,HMKLARGEFEIMAKFIKEISGISLEQNKTYLIESRLSDLAESEGVKTFSDFFFKAKFNKILKEKIIDAI,-1.13
23,HMKLHFTINGVHYTWYKQFIRGIQIRELGNIPREDELYLDLPDGWKDDFIEDDEIVDLARPGVEHFISRAK,-4.84
24,HMKLIIVPNLVGQSRRSVEISLQQIGLRIDTVYTEFNPDYPKGTVAWQFPKSGDHIKKGMGLQITVSQG,-0.391
25,HMKLINEDLNNEIVFEENKVNLLVIENKKKFVQFIQEIIKQINGDEGKFSLFDINTELKIHDKIDII,0.174
26,HMKLIPLTDMRGQLRSGAPLPWGVRDAQGNLLLGKGHVIASDDMLEALLARGMFVDAEEAKAARG,0.0132

row,Sequence,soluble fraction (log2)
1,HMKLISVAVMRASDAAEIAGGTDSKTLMYRAGLGLFQSWDWHGKIDIVTGSGNNAGDGYVLALLL,0.14
2,HMKLNKRQYAYQVIRSRILDGTYVPGQRIIIDQIAKEVNSSHIPVREAIHQLESEQLIDYEPNIGAIVKG,-0.242
3,HMKLSALRDKIKEHLLRQIQNGELQVGKTINLAALSRVTGISVTPIREALTQLEQAQVIQAVPNRGFVVA,-0.418
4,HMKLSIGGTIEKLRRNKGLSHQQLANALGVTPDTVEKWEINAAYPDITLLSPIARLLGTTLDALLMF,-1.77
5,HMKLSKLTKPELDEIFRNANFTEEEEKVFWLLARGKSLEQISAKTFLPIATVNRRVKSIKDKIG,-0.436
6,HMKLTKPKLIQLIHIAKSKLNMDELSYRVLLDNLTGKTSTTKMTVGELLKVYESMKDKGFKPQV,-0.993
7,HMKLTTRQTEIINIVKAEQPISGEKIAQNLGLSRATLRNDLSILTMTGLLDAKPKVGYFYTGQ,-0.976
8,HMKLVESALSILEEAVDRDFHGNLGDAARYFDIPYQTIYSWLKSRKRVPSLRALEPVLEKLGVSFTT,-2.01
9,HMKLVTIPNVIGKTKEDAMKTLKDLGVTVTVETKESEKDDGTVIAQSKAEGTKLTAGENVTITVSKKKK,≥ 1.04
10,HMKMATITKRTNPSGAVVYRAQVRVKREGYPPYSESRTFSKKSLATEWAKRREFEIETNPDLLFN,-1.76
11,HMKMLEINDNDSVGLKNLKTQYNHNQKVIENFQLEINKVINDGELPDKYLLDGMEKYQKLNMQIMSTIEKQ,0.0503
12,HMKMPNGYGSVYKLSGNRRKPWAARVTDGWVNDTKTKKSKQKYKFIGFYETRKEALLALADYNANP,-2.05
13,HMKMSLKENLLELLQKSSGEFLSGERAAETLGVSRTAVWKAVTSLKNEGYNIESVTNRGYRFS,-0.34
14,HMKNANGYGSITKLKGNRRKPYMVRITVGRDENGFPIRKVLGYYSSKANAVAALSDYNREPYDI,-1.78
15,HMKNENSLLVSRLAEEKIINRAKLVLMEYLKLSEPQAHRYIEKQAMDLQISRAEVAARVLETYE,-1.35
16,HMKNEVENLSYMINRIIEYRDLNNLSNKNLANKIGISEALLSYILNGRRKLSKEIQRKIALFLLND,-1.99
17,HMKNFAPVWGEEGAEFGKEVDTGFRLRIVEKEKDVNDLFEVIQKHTIQSQWKPGSTGTESIYKRI,0.886
18,HMKNHIEERRKARGMTQQQLASELGVSRQTIISLENGKYNPSILLAHSIARLFGERIEDIFILR,-2.45
19,HMKNINTNIGKNLKRIRKLRGLTIDALATSSGVSKSMISEIERGIRNPSITIIWSLANALKTPLNYFLKE,-1.46
20,HMKNKFYEEFSDYIFKHTGIHYAEANYYQLDARINKLMKFLETSDENDVLKAIQGGAVKDQRVHQMIVDLA,-2.16
21,HMKNKRERLGIISEILRMQVIGSQEELLDILRAKGYDVTQATLSRDLKVLKVAKTPLSNGAYKYVLPPQ,-1.39
22,HMKNLSQAEFMYLFKILAFGSTDPDNHPEMAATGMEIAKMLQGLLLSGNVLADILRKNQNVQFWL,0.0572
23,HMKNNITFSEFLHEVDNGRVIKVNIQGNNITGILADGKSFNTYTPNDPSLIEKLTSKGVSISATPI,0.13
24,HMKNNLKGSPIIIAGGYGVGSKENFNLLFDLAKVLNAEVGASRAAVDAGFVEHDRQIGQTGVTVRP,0.143
25,HMKNNYQYIVDQIKQLILDGELIVGDRLPSERDLSEMYQVSRASVREALKALETIGLLESRHGGGNYIVNH,-1.28
26,HMKNQIGFKIKNARRKASISQADLSAKLGISSSYLNLIESGKRNVNVDLLLKVSDVLNIELKDLSK,-2.06

row,Sequence,soluble fraction (log2)
1,HMKNTYTVVSGDTLWGIASRKLGGGSNWTKIYDANAATIESVANRRRGGRGSDHGHWIYPGTVLTI,-0.298
2,HMKNYYRILGLNIDAEYEEIKAAYRILAQRHHPDKGGAAAEFRLIQEAYDILSNPLTKRNYDADLLATLN,-2.65
3,HMKPDMAVIVGSRTLTFATTTDRQILVLRTDGTMVNRLSMKAGETRTITLPAGVYIVNGKKIIV,-2.35
4,HMKPFSLESYKAFVVKRLGLFPETSSAQMHDWLKEEYPDFPLITPRTVYNFVMKIRQDYGIAKV,-3.43
5,HMKPFVVVPIDQVRVGMFIQLDLGWMQHPFPVGSFRVASEAQIDTLRSLDLESVRYLPAKSDPAFQQP,-2.82
6,HMKPGNFILDLLRTYGQKGTSAQNLMSSSRMFNFSENLIRVTLSRLAARGLIENFERGHYRLAE,-0.488
7,HMKPGTIVTGVVVDIKSDVVVVNAGLKSEGIVPIEQFRNDRGELEVAIGDEVKVALDSLENGFGETVLSRE,-0.435
8,HMKPQKRYLFEEVLTFLKHNSEKSFNYKQLGAAMEISNESDRFTLLETLEELKHQGFVVEKEIGKYQAKE,-1.25
9,HMKPRVTVVTLGVDDLERAVRFYAEGLGFPTEGIVGREFEFGAVAFFDMQPGLRLALWPRRSLAHDSGLP,-0.373
10,HMKPSISKIYALWGVLQRSGKIKSQDKAALDAFVRKYTGVDHVKWLDESQARKIIEILKQMIA,-1.55
11,HMKPSKTDEAEYWLMERLEEGPQPAGDLIRIGEEFGYTPKILRDAGERFNMERYKDGLDHWMWKLPN,-0.154
12,HMKPVTNHTVKFYVDDVLWKTVTVKHGGNVRLADLPMSDGKTFVGWSESVVNVTKDLTVFALFS,-1.96
13,HMKPVYNKVEIPRGGEYALVLSDGTKVHLNSMSSLRFPVAFTTGKREVELQGEAYFEVSKTGQPFIVNV,0.219
14,HMKQGKGIIVVDGKLMPEDFNVATLSLDEVESITVLKGEKAVALYGEKAKEREVLLITTQKG,0.427
15,HMKQKAEVIFVSKTIMEALSKGVRLTPENLKSETELPIDDFYARLKELIDNGSVVESRENGESYLEAGN,-0.0162
16,HMKQLNKRQDDILSLAEKEGYVSVENLAKTFTVSQQTIRRDINYLSDHEFLVRTHGGAFYSSG,-0.252
17,HMKQNNYATKKELNFFVSRLISLLSYRDFFNPIEKKESMINNIEAIFTRSSLTSQELRTLHGIISNLVE,-3.57
18,HMKQPNSYGSVHKLPGKRRKPWRVRKTSGWLLDEQSGTVKQQYITIGYYATKQEALIALADYNENP,-1.55
19,HMKQQFTREQIIELMYKAYKKHKKKLNRVEIKKEKALPSYVTIGRYLNETSIKKIWEIVLSEKE,-1.22
20,HMKQVEVESVIGKSEEAANSILTKAGLKVNIGYKEDSSKPTDTVLSQDPAPGEKVDEGTTVTIVVNNYKKP,0.139
21,HMKRANGTGSVFKLNGKRRNPWVARVTQGFDDKGRQKYVNLGYYKTKREAENELLSYNSNPYDAN,-0.238
22,HMKREWKDDDPTVPAGWKVAWTTTSDNRAKIAFMSPDKKIFHSRKSALQHMLAAGTYAQSDIEKMTKGL,-0.315
23,HMKRFSPPSIEEVDSYIREKGYTVDAERFVNFYESKGWYVGKNKMKNWRAAVATWQKEDNKRN,-0.226
24,HMKRGDAYASEMIARLKEAHLIVMEGTLYPLLTRLKNDGLLSYRWEESTQGPPRKYYSITPVG,0.151
25,HMKRITGHLTEKNKKWYAVINLYDTDGKRKEKWQGLNLDANKGNKREAEHRLRQILDQYNTD,-0.258
